Data on 1 substance can be found in patent US20150260724A1.

For this assay, the target named is endogenous Fc epsilon receptor I (the IgE receptor) of RBL-2H3 cells (rat) (UniProt P12371). Nature of the assay: cell-based or functional assay.
UniProt P12371, sequence (P12371 24-245): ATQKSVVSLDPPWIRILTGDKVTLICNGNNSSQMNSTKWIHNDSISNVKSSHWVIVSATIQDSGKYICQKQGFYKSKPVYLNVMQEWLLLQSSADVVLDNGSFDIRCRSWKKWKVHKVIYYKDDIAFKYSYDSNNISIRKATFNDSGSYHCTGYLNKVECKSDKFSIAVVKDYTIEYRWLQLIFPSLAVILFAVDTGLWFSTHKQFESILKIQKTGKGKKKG

“mouse IgE monoclonal antibody against trinitrophenyl hapten, purified from IgELb4 hybridoma (ATCC TIB-141)”: the FLUORESCENCE (IgE + TNP-BSA, specific exocytosis); 1B7-HEXB clone, HEXB substrate 4MU-NGlc, 30 min was 28600; the FLUORESCENCE (IgE + TNP-BSA, specific exocytosis); 1C4-HEXB clone, HEXB substrate 4MU-NGlc, 30 min came to 39200; the FLUORESCENCE (IgE + TNP-BSA, specific exocytosis); 1F10-HEXB clone, HEXB substrate 4MU-NGlc, 30 min came to 17400; the FLUORESCENCE (IgE + TNP-BSA, specific exocytosis); 2D1-SEAP clone, phosphatase substrate fluorescein diphosphate, 30 min was 62900. The FLUORESCENCE (IgE + TNP-BSA, specific exocytosis); RBL2H3-HEXB (whole stable population), HEXB substrate 4MU-NGlc, 30 min came to 14100; the FLUORESCENCE (IgE + TNP-BSA, specific exocytosis); RBL2H3 cells, HEXB substrate 4MU-NGlc, 30 min came out at 6420; the FLUORESCENCE (IgE + TNP-BSA, specific exocytosis); RBL2H3 cells, phosphatase substrate fluorescein diphosphate, 30 min was 29900; the LU… (IgE + TNP-BSA, specific exocytosis); supernatant of 12.500 GZB-GLuc cells, coelenterazine is 997. Further, the LU… (IgE + TNP-BSA, specific exocytosis); supernatant of 25.000 GZB-GLuc cells, coelenterazine is 3780; the LU… (IgE + TNP-BSA, specific exocytosis); supernatant of 50.000 GZB-GLuc cells, coelenterazine was 4710; the LU… (IgE + TNP-BSA, specific exocytosis); supernatant of 100.000 GZB-GLuc cells, coelenterazine was 6280.
